Assay results taken from US8551951B2, “Pharmaceutical preparations and methods for inhibiting tumors” (Aenorasis SA Pharmaceuticals and Medical Devices, priority 2000, dated 2013).
Several values for one entry are separate records, joined by “and”; a condition that tells them apart may be missing. Equal values may be shown once.

Columns and labels:
[1] = test system: PC-3 cells; assay: [^3H]-Thymidine uptake assay; type: cell-based, human; settings: for ^3[H]-Thymidine Uptake (% of control): 72 hours
Description: The in vitro growth inhibition effect of rHuPSP94 was assessed using [^3H]-Thymidine uptake assay. [^3H]-Thymidine uptake assay involves [^3H]-Thymidine incorporation into cellular DNA of actively proliferating cells. It measures the proliferative index of the cells versus the MTS assay, which quantifies the number of lived cells following treatment. Cells were seeded in Costar 96 well cell culture flat bottom plates in RPMI supplemented media containing 50 μg/ml of bovine serum albumin (BSA) and 0.1 μM FeSO4. PC-3 cells were exposed to various concentrations of rHuPSP94 for 72 hours and during the final 16 hours of incubation cells were pulsed with 1 μCi of [^3H]-Thymidine. The radioactivity in each well of the plate is counted by a beta-counter and is expressed as total counts per minutes (cpm). Results of in vitro effect of rHuPSP94 on PC-3 cells using the ^3[H]-Thymidine uptake assay are summarized in Table 3 and are expressed as percentage of radioactivity measured for treated-cells relative to the radioactivity measured for non-treated cells (for which [^3H]-thymidine uptake value was set at 100%).
[^3H]-Thymidine uptake assay involves [^3H]-Thymidine incorporation into cellular DNA of actively proliferating cells. [^3H]-Thymidine uptake assay measures the proliferative index of the cells versus the MTS assay, which quantifies the number of lived cells following treatment. The anti-proliferative effects of PCK3145 and two other synthetic polypeptides derived from the amino and carboxy terminus ends of PSP94 (SEQ ID NO: 4 and NO: 6, respectively) as well as the decapeptide (SEQ ID NO: 3) previously shown to mimic the biological action of native PSP94 were assessed in [H3]-Thymidine uptake assay on PC-3 cells. Two separate experiments were conducted with GMP-grade PCK3145.

[2] = test system: PC-3 cells; assay: DNA fragmentation assay (DNA ladder, apoptosis); type: cell-based, human
Description: Cell apoptosis result in DNA fragmentation can be evaluated by the presence of a DNA ladder visualized when DNA is run on a 1.2% agarose gel. DNA ladder assay (apoptosis assay) was performed following exposure of PC-3 to various concentrations of the polypeptides for 72 hours. The polypeptides that were used in this particular experiment are polypeptide 7-21 (SEQ ID NO: 4), polypeptide PCK3145 (SEQ ID NO: 5) and polypeptide 76-94 (SEQ ID NO: 6). […] This effect was especially evident following treatment with PCK3145 (SEQ ID NO: 5), which is illustrated by FIG. 7. Lane 1 of the gel illustrated in FIG. 7 represents a lambda HindIII digest standard.
Apoptosis of PC-3 cells, following a 72 hours exposure to PCK3145 at 500 μg/ml concentration, was evaluated in supplemented media by DNA fragmentation assay. Doxorubicin was used as a reference positive control. Untreated cells and PCK3145-treated cells were harvested and the DNA was isolated. Isolated DNA was run on a 1.2% agarose gel containing Ethidium Bromide (EtBr). […] Lane 1 of the gel illustrated in FIG. 25 represents the DNA marker (100 base pair DNA ladder). Lane 2 of the gel illustrated in FIG. 25 represents a control of untreated PC-3 cells.

[3] = test system: tumor cells; settings: exogenous PSP94, in vivo and in vitro; cited from earlier work
[4] = test system: follicle-stimulating hormone (FSH); settings: in-vitro and in-vivo in adult male rats; cited from earlier work
[5] = test system: human prostate cancer cells PC-3; assay: MTS assay, growth inhibitory effect on PC-3 cells; type: cell-based; settings: for % Viability (control = 100%): 72 hours
Excerpt: Cell proliferation was monitored on PC-3 cells using the MTS/PMS (phenazine methosulfate) kit (Promega), which primarily measures mitochondrial activity of live cells. The basic principle of this method involves the fact that the mitochondrial enzymes of the live cells metabolize the MTS/PMS dyes forming a brown colored precipitate which can be measured as optical density (OD) by absorption at 490 nm in a spectrophotometer. Therefore, the OD values are proportional to the number of living cells. In addition, monitoring of cell morphology was also performed. Cell morphology would be indicative of their health status. For example, viable cells would appear adherent and spread out whereas dead cells would be in suspension in the media and would appear granular and round.
PC-3 cells (ATCC, Lot AT06) used in these experiments were at a passage number lower or equal to 70 (n≧70). Cells were seeded in Costar 96 well cell culture flat bottom plates in RPMI supplemented media containing 50 μg/ml of bovine serum albumin (BSA) and 0.1 μM FeSO4. Peptide was diluted in the same media. Cells were continuously exposed to the polypeptides of the present invention for 72 hours without changing media. Native PSP94 or rHuPSP94 concentrated two fold were directly added to wells and diluted to 1× in order to minimize cell manipulation and avoid detachment.
Native PSP94, rHuPSP94, polypeptide 22-36 and PB111 polypeptide (scrambled polypeptide) were also included in this experiment as controls. Cell proliferation assay was performed on either PC-3 cells or normal fibroblasts (used here as control) using the MTS/PMS kit (Promega). Four thousand cells (FIGS. 9 and 10) or three thousand (FIG. 11) cells were seeded in Costar 96 well cell culture flat bottom plates in RPMI supplemented media containing 50 μg/ml of bovine serum albumin (BSA) and 0.1 μM FeSO4. In addition, monitoring of cell morphology was also performed.
This assay measures the mitochondrial activity of the live cells. The basic principle of this method involves the fact that the mitochondrial enzymes of the live cells metabolize the MTS/PMS dyes forming a brown colored precipitate which can be measured as optical density (OD) by absorption at 490 nm in a spectrophotometer. Therefore, the OD values are proportional to the number of living cells.
In addition, a visual observation of the cells was also done to check the cell morphology, which could also be indicative of cell growth. The following conditions for MTS assay were used: PC-3 (ATCC, Lot AT06), passage number n≧70, cell line adapted to grow in serum-free OPTI-MEM and in RPMI supplemented with BSA (50 μg/ml) and Ferrous Sulfate (0.1 μM), continuous exposure for up to 72 hours without changing media (i.e., adding PCK3145 at 2× concentration directly to wells and diluting it 1:2 to 1× to minimize cell manipulation and avoid detachment).

[6] = test system: Mat Ly Lu (MLL) tumor; assay: Study MLL-1, Mat LyLu tumor implanted in nude mice; type: in vivo; settings: 1 μg/kg/day s.c.; p=0.042
Description: (§1) Studies MLL-1 and MLL-2 were performed as follows; on day 0, male Copenhagen rats were injected subcutaneously with 5×10^5 Mat LyLu cells per rat. These cells were derived from cultures of Mat LyLu cell line grown in RPMI media containing 10% (v/v) of fetal calf serum in logarithmic phase of growth. Cells were harvested from the culture flasks by trypsinization, were centrifuged at 1200 rotation per minute (rpm) and washed three timed with Hanks balanced salt solution (HBSS). Following washing, cells were counted and adjusted to a concentration of 5×10^6 cells/ml in HBSS. A 0.1 ml volume of tumor cell inoculum containing 5×10^5 cells was administered subcutaneously into the flank region of each rat. Three days after tumor cell implantation (i.e., inoculation), animals were treated daily by a subcutaneous injection of the desired polypeptide until day 13.
Experiments illustrated in FIG. 12 show the anti-tumor efficacy validation of rHuPSP94 against Mat LyLu (MLL) tumor implanted in nude mice (Protocol based on S. Garde et al.; The Prostate, 22: 225-233, 1993).
For study MLL-1 (FIG. 12), tumor-implanted nude mice were separated in different groups, each receiving various amount of rHuPSP94 or control reagents. The different groups used in these experiments are illustrated below. Each group contained 8 mice.

[7] = test system: Mat Ly Lu (MLL) tumor; assay: Study MLL-2, Mat Ly Lu tumor implanted in SCID mice; type: in vivo; settings: 1 μg/kg/day s.c.; p=0.010
Description: as §1
Experiments illustrated in study MLL-2 show the anti-tumor efficacy validation of rHuPSP94 against Mat Ly Lu (MLL) tumor implanted in severe combined immunodeficiency (SCID) mice (Protocol based on S. Garde et al.; The Prostate, 22: 225-233, 1993).
For study MLL-2 (FIG. 13), tumor-implanted Scid mice were separated in different groups each receiving various amounts of rHuPSP94 or control reagents. The different groups used in these experiments are illustrated below. Each group contained 8 mice.

[8] = test system: PC-3 human prostate tumor; assay: PC-3 human prostate tumor in nude mice, subcutaneous treatment for 14 days (Examples 10 and 11); type: in vivo, Nude mouse; settings: 1 μg/kg body weight per day s.c.
Description: PC-3 human prostate tumor was obtained from ATCC (ATCC 1435). PC-3 cells were grown in RPMI media containing 10% (v/v) of fetal calf serum and were harvested in the logarithmic phase of growth by trypsinization. Cells were centrifuged at 1200 rotation per minute (rpm) and washed three timed with Hanks balanced salt solution (HBSS). Following washing, cells were counted and adjusted to a concentration of 1×10^7 cells/ml in HBSS. A 0.1 ml volume of tumor cell inoculum containing 1×10^6 cells was administered subcutaneously into the two opposite flank region of each Nude mouse (Nu/Nu, BALE/c background). Tumor growth was monitored for approximately 18 days. Once tumor growth has been established (volume of tumor reached a volume of 50 mm^3) treatment with rHuPSP94 (SEQ ID NO: 2) was initiated and was performed once a day for 14 days by the subcutaneous route. Based on the assigned treatment groups illustrated in table 4.
PC-3 human prostate tumor (ATCC 1435) obtained from ATCC was implanted bilaterally into nude mice and tumor growth was monitored for approximately 18 days. PC-3 cells were injected once subcutaneously into each flank of the mice. Once tumor growth has been established (i.e., volume of tumor reached 0.25 to 0.50 cm^3) the treatment with decapeptide (SEQ ID NO: 3), native PSP94 (SEQ ID NO: 1) and control scrambled polypeptide PB111 was initiated and was performed once a day for 14 days by the subcutaneous route based on the treatment groups (randomly assigned) illustrated in table 5.

B1: native PSP94: Prostate Secretory Protein of 94 amino acids, native human seminal plasma protein, SEQ ID NO: 1 (protein)
chain: SCYFIPNEGVPGDSTRKCMDLKGNKHPINSEWQTDNCETCTCYETEISCCTLVSTPVGYDKDNCQRIFKKEDCKYIVVEKKDPKKTCSVSEWII
^3[H]-Thymidine Uptake (% of control) ([1]; 5 μg/ml): 97 % of control | ^3[H]-Thymidine Uptake (% of control) ([1]; 10 μg/ml): 98 % of control | ^3[H]-Thymidine Uptake (% of control) ([1]; 20 μg/ml): 100 % of control | ^3[H]-Thymidine Uptake (% of control) ([1]; 40 μg/ml): 98 % of control | ^3[H]-Thymidine Uptake (% of control) ([1]; 80 μg/ml): 77 % of control | reduction in the [H3]-Thymidine uptake ([1]; 72 hours exposure (FIG. 24)): ~50% | DNA laddering effect (FIG. 7 lane 4) ([2]; 20 μg): DNA laddering effect | DNA laddering effect (FIG. 7 lane 3) ([2]; 40 μg): DNA laddering effect | effect on tumor cell growth [3]: inhibitory effect | secretion of circulating FSH [4]: suppress secretion of

B2: rHuPSP94: recombinant human PSP94 expressed in yeast (Pichia pastoris), non-glycosylated, 10 cysteine residues, SEQ ID NO: 2 (protein)
chain: EAEAYVEFSCYFIPNEGVPGDSTRKCMDLKGNKHPINSEWQTDNCETCTCYETEISCCTLVSTPVGYDKDNCQRIFKKEDCKYIVVEKKDPKKTCSVSEWII
modifications: recombinant human PSP94 (rHuPSP94) produced from yeast
% Viability (control = 100%) ([5]; 5 μg/ml): 98% and 92% and 89% | % Viability (control = 100%) ([5]; 10 μg/ml): 84% and 95% and 69% | % Viability (control = 100%) ([5]; 20 μg/ml): 78% and 80% and 79% | % Viability (control = 100%) ([5]; 40 μg/ml): 100% and 70% and 71% and 68% and 72% and 63% and 95% | % Viability (control = 100%) ([5]; 60 μg/ml): 98% and 78% and 63% and 85% and 52% | reduction in cell numbers (i.e., viability) ([5]; 80 μg/ml): 37% and 35% | % Viability (control = 100%) ([5]; 80 μg/ml): 90% and 55% and 59% and 58% and 63% and 78% and 62% | reduction in cell numbers (i.e., viability) ([5]; 120 μg/ml): 57% | % Viability (control = 100%) ([5]; 120 μg/ml): 52% and 43% and 68% and 60% | ^3[H]-Thymidine Uptake (% of control) ([1]; 5 μg/ml): 94 % of control | ^3[H]-Thymidine Uptake (% of control) ([1]; 10 μg/ml): 101 % of control | ^3[H]-Thymidine Uptake (% of control) ([1]; 20 μg/ml): 98 % of control | ^3[H]-Thymidine Uptake (% of control) ([1]; 40 μg/ml): 79 % of control | reduction in the percentage of cells incorporating [^3H]-thymidine ([1]; 80 μg/ml for 72 hrs, compared to non-treated control): 65% | ^3[H]-Thymidine Uptake (% of control) ([1]; 80 μg/ml): 35 % of control | tumor weight reduction [6]: 26% | tumor weight reduction [7]: 65% | tumor growth (tumor volume) [8]: tumor growth reduction | tumor growth reduction compared with Doxorubicin (5 mg/kg/day) [8]: reduction was similar to that observed for Doxorubicin
